In doi:10.1101/590646 one finds fold increase in BiFC fluorescence over the singly expressed constructs data, which are given here for 1 substance.

This experiment deals with SERINC5-VN-HA (human) (UniProt Q86VE9). Nature of the experiment: split reporter.
Sequence of UniProt Q86VE9 (Q86VE9 whole entry): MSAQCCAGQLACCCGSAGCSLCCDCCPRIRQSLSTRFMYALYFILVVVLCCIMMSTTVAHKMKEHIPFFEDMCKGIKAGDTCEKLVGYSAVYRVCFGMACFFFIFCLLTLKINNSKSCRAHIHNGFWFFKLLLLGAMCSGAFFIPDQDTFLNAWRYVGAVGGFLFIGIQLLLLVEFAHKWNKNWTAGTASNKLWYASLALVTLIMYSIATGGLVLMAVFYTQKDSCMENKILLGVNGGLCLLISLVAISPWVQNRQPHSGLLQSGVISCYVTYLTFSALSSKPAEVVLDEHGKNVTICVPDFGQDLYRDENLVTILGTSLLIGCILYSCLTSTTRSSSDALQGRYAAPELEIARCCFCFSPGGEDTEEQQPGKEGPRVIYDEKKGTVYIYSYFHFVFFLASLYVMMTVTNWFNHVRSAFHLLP

With “Nef_(NL43)-V5-VC (HIV-1 NL4-3 Nef fused to a Venus fragment) (natural protein)”, the fold increase in BiFC fluorescence over the singly expressed constructs was found to be 4 fold.
